This series deals with Escherichia coli TOP10. In words: shrunken log2 fold change of peptide-encoding DNA abundance (4.5 h post-induction vs induction); higher = less antimicrobial activity (less host growth inhibition). Conditions: time post-induction: 4.5 h; library: site-saturation at positions 5, 18, 19, 20.
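Further: peptides expressed intracellularly from a pBAD plasmid library in pooled LB shake-flask culture, induced with 0.3% L-arabinose, DNA abundance read by NGS, three biological replicates, DESeq2 with apeglm shrinkage.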

Regarding RRIRKRPPRLPRPRPRPIACPRP, the “shrunken log2 fold change” value stood at 0.104.
Next, RRIRARPPRLPRPRPRPHTKPRP: 0.0902.
For the sequence RRIRQRPPRLPRPRPRPRTCPRP, the “shrunken log2 fold change” value was -0.576.
For the sequence RRIRGRPPRLPRPRPRPEWRPRP, the “shrunken log2 fold change” value stood at 1.15.
For the sequence RRIRTRPPRLPRPRPRPVALPRP, the “shrunken log2 fold change” value is 0.0946.
With RRIRFRPPRLPRPRPRPAEWPRP, the “shrunken log2 fold change” value worked out at 0.512.
Next, RRIRGRPPRLPRPRPRPSNMPRP: -0.113.
Regarding RRIRKRPPRLPRPRPRPHQFPRP, the “shrunken log2 fold change” value is -0.114.
Regarding RRIRARPPRLPRPRPRPVDWPRP, the “shrunken log2 fold change” value turned out to be 1.01.
In the case of RRIRARPPRLPRPRPRPDMDPRP it was 0.3.
Next, RRIRTRPPRLPRPRPRPTRGPRP: 0.705; RRIRNRPPRLPRPRPRPTHLPRP: 0.109.
Next, RRIRHRPPRLPRPRPRPLMHPRP: -0.414; RRIRWRPPRLPRPRPRPDDRPRP: 0.171; RRIRMRPPRLPRPRPRPVEVPRP: 0.389.
Take RRIRPRPPRLPRPRPRPGTEPRP: the “shrunken log2 fold change” value is -0.0123.
For the sequence RRIRRRPPRLPRPRPRPFYRPRP, the “shrunken log2 fold change” value is -0.0117.
For RRIRNRPPRLPRPRPRPWYWPRP, the “shrunken log2 fold change” value was -0.109.
With RRIRKRPPRLPRPRPRPDWMPRP, the “shrunken log2 fold change” value was 0.00417.
In the case of RRIRRRPPRLPRPRPRPWVEPRP it was 0.0269; in that of RRIRQRPPRLPRPRPRPLHQPRP, -0.172; in that of RRIRIRPPRLPRPRPRPIEFPRP, -0.0138.
In the case of RRIRSRPPRLPRPRPRPIYMPRP it was -0.533; in that of RRIRRRPPRLPRPRPRPTPPPRP, 0.845; in that of RRIRDRPPRLPRPRPRPECCPRP, 0.828.
Next, RRIRTRPPRLPRPRPRPREYPRP: -0.00842; RRIRDRPPRLPRPRPRPRSMPRP: 0.211; RRIRDRPPRLPRPRPRPGHQPRP: 0.137.
RRIRWRPPRLPRPRPRPMMTPRP: the “shrunken log2 fold change” value was 0.0544.
Take RRIRVRPPRLPRPRPRPITYPRP: the “shrunken log2 fold change” value is -0.911.
Regarding RRIRSRPPRLPRPRPRPKAQPRP, the “shrunken log2 fold change” value turned out to be 0.103.
As to RRIRWRPPRLPRPRPRPKRFPRP, the “shrunken log2 fold change” value was 0.729.
Next, RRIRKRPPRLPRPRPRPPNPPRP: 0.657; RRIRFRPPRLPRPRPRPCEHPRP: -0.00783.
For RRIRARPPRLPRPRPRPGMHPRP, the “shrunken log2 fold change” value was 0.233.
In the case of RRIRKRPPRLPRPRPRPSEFPRP it was 0.154; in that of RRIRKRPPRLPRPRPRPVKGPRP, 0.322.
Next, RRIRSRPPRLPRPRPRPYPEPRP: -0.355.
Take RRIRHRPPRLPRPRPRPLWAPRP: the “shrunken log2 fold change” value was determined as 0.222.
In the case of RRIRQRPPRLPRPRPRPSPKPRP it was -0.143; in that of RRIRIRPPRLPRPRPRPAAPPRP, 0.47; in that of RRIRVRPPRLPRPRPRPKMHPRP, -0.198.
As for RRIRMRPPRLPRPRPRPNLIPRP, the “shrunken log2 fold change” value was -0.0317.
Next, RRIRFRPPRLPRPRPRPKTKPRP: 0.0287; RRIRCRPPRLPRPRPRPNWVPRP: -0.279; RRIRLRPPRLPRPRPRPRFDPRP: -0.053.
In the case of RRIRSRPPRLPRPRPRPNPFPRP it was -0.236; in that of RRIRIRPPRLPRPRPRPWKKPRP, 0.00748; in that of RRIRERPPRLPRPRPRPPIQPRP, -0.27.
In the case of RRIRSRPPRLPRPRPRPFPLPRP it was -0.886; in that of RRIRWRPPRLPRPRPRPSLHPRP, -0.044.
As for RRIRIRPPRLPRPRPRPGNIPRP, the “shrunken log2 fold change” value was -0.479.
Next, RRIRERPPRLPRPRPRPVCKPRP: 0.0272.
Next, RRIRQRPPRLPRPRPRPDCRPRP: 0.0305; RRIRMRPPRLPRPRPRPGFTPRP: 0.00309.
Turning to RRIRARPPRLPRPRPRPIQDPRP, the “shrunken log2 fold change” value worked out at 0.0826.
Next, RRIRARPPRLPRPRPRPHMHPRP: -0.152.
In the case of RRIRERPPRLPRPRPRPEMPPRP it was 0.112; in that of RRIRYRPPRLPRPRPRPMTNPRP, -1.55.
In the case of RRIRERPPRLPRPRPRPFRHPRP it was 0.0628; in that of RRIRHRPPRLPRPRPRPTKVPRP, -0.0672.
With RRIRDRPPRLPRPRPRPISTPRP, the “shrunken log2 fold change” value was -0.146.
Take RRIRERPPRLPRPRPRPAPFPRP: the “shrunken log2 fold change” value is -0.244.
For RRIRMRPPRLPRPRPRPDRHPRP, the “shrunken log2 fold change” value worked out at 0.0052.
Regarding RRIRQRPPRLPRPRPRPKPMPRP, the “shrunken log2 fold change” value was 0.382.
Consider RRIRIRPPRLPRPRPRPHLKPRP, for which the “shrunken log2 fold change” value is -0.358.
Consider RRIRPRPPRLPRPRPRPNAPPRP, for which the “shrunken log2 fold change” value was 0.0216.
As for RRIRCRPPRLPRPRPRPKNVPRP, the “shrunken log2 fold change” value was -0.258.
In the case of RRIRSRPPRLPRPRPRPEFPPRP, the “shrunken log2 fold change” value is 0.123.
In the case of RRIRYRPPRLPRPRPRPDTRPRP it was -0.153; in that of RRIRRRPPRLPRPRPRPPPLPRP, 0.963; in that of RRIRNRPPRLPRPRPRPVWDPRP, 0.325.
In the case of RRIRIRPPRLPRPRPRPNENPRP, the “shrunken log2 fold change” value was -0.59.
In the case of RRIRNRPPRLPRPRPRPDIDPRP it was -0.0391.
Next, RRIRARPPRLPRPRPRPHGAPRP: 0.52; RRIRPRPPRLPRPRPRPCVGPRP: 0.267.
In the case of RRIRHRPPRLPRPRPRPAVAPRP it was 0.117; in that of RRIRKRPPRLPRPRPRPIYQPRP, -0.0246.
On to RRIRMRPPRLPRPRPRPWGCPRP, for which the “shrunken log2 fold change” value amounted to 0.311.
In the case of RRIRERPPRLPRPRPRPNQPPRP, the “shrunken log2 fold change” value came out at 0.0495.
With RRIRARPPRLPRPRPRPSLDPRP, the “shrunken log2 fold change” value worked out at 0.735.
With RRIRNRPPRLPRPRPRPGLFPRP, the “shrunken log2 fold change” value came to 0.0823.
In the case of RRIRARPPRLPRPRPRPMQSPRP it was 0.43.
In the case of RRIRWRPPRLPRPRPRPFCKPRP it was -0.13; in that of RRIRIRPPRLPRPRPRPSANPRP, -0.15; in that of RRIRKRPPRLPRPRPRPENWPRP, 0.928.
Regarding RRIRPRPPRLPRPRPRPNPSPRP, the “shrunken log2 fold change” value was -0.138.
In the case of RRIRERPPRLPRPRPRPQTFPRP it was -0.0695; in that of RRIRERPPRLPRPRPRPIITPRP, -0.867; in that of RRIRFRPPRLPRPRPRPCFEPRP, -0.0728.
As to RRIRRRPPRLPRPRPRPHSQPRP, the “shrunken log2 fold change” value came to 0.0866.
RRIRKRPPRLPRPRPRPFIHPRP: the “shrunken log2 fold change” value is -0.0282.
In the case of RRIRLRPPRLPRPRPRPFDFPRP, the “shrunken log2 fold change” value is -0.281.
For RRIRERPPRLPRPRPRPYEIPRP, the “shrunken log2 fold change” value stood at 0.0169.
RRIRRRPPRLPRPRPRPLALPRP: the “shrunken log2 fold change” value was 0.396.
In the case of RRIRIRPPRLPRPRPRPTVLPRP it was -0.369; in that of RRIRQRPPRLPRPRPRPCCSPRP, -0.0854.
In the case of RRIRTRPPRLPRPRPRPTTCPRP it was -0.00487; in that of RRIRSRPPRLPRPRPRPFDNPRP, 0.0211; in that of RRIRRRPPRLPRPRPRPVWPPRP, 0.36.
In the case of RRIRERPPRLPRPRPRPIPKPRP it was 0.65; in that of RRIRPRPPRLPRPRPRPLEGPRP, 0.179; in that of RRIRARPPRLPRPRPRPMDVPRP, 0.241.
As to RRIRGRPPRLPRPRPRPKHEPRP, the “shrunken log2 fold change” value is 0.679.
Next, RRIRSRPPRLPRPRPRPINRPRP: -0.225; RRIRVRPPRLPRPRPRPCPNPRP: -0.245; RRIRCRPPRLPRPRPRPDPAPRP: 0.412.
Next, RRIRKRPPRLPRPRPRPECQPRP: 0.57; RRIRMRPPRLPRPRPRPHDSPRP: -0.0393.
Next, RRIRIRPPRLPRPRPRPQIAPRP: -0.0185.
For the sequence RRIRARPPRLPRPRPRPYNLPRP, the “shrunken log2 fold change” value is -0.00894.
As to RRIRGRPPRLPRPRPRPNPHPRP, the “shrunken log2 fold change” value was found to be 0.216.
Next, RRIRQRPPRLPRPRPRPNSMPRP: -0.25; RRIRHRPPRLPRPRPRPDDPPRP: -0.0026.
For the sequence RRIRRRPPRLPRPRPRPPCQPRP, the “shrunken log2 fold change” value worked out at 0.767.
For RRIRGRPPRLPRPRPRPVNVPRP, the “shrunken log2 fold change” value came out at 0.0488.
Next, RRIRYRPPRLPRPRPRPWHIPRP: -0.103; RRIRHRPPRLPRPRPRPVYNPRP: -0.303; RRIRQRPPRLPRPRPRPHGCPRP: 0.0414.
Next, RRIRKRPPRLPRPRPRPQCGPRP: 0.0718.
As to RRIRWRPPRLPRPRPRPHMQPRP, the “shrunken log2 fold change” value is -0.0363.
In the case of RRIRFRPPRLPRPRPRPSAYPRP, the “shrunken log2 fold change” value is -0.791.
Next, RRIRYRPPRLPRPRPRPPVHPRP: -0.0526.
Next, RRIRWRPPRLPRPRPRPMRPPRP: 1.15.
Turning to RRIRMRPPRLPRPRPRPTPIPRP, the “shrunken log2 fold change” value was found to be 0.255.

The record behind these values is the supplement of paper PMC9112550, “Optimization of the antimicrobial peptide Bac7 by deep mutational scanning” (BMC Biology, 2022).
